Source: patent US20240102052A1 (VNV NEWCO, published 2024)
Where a chain is given by its changes, count along the chain named. Names may count otherwise.

B1: PNMA2 C136S mutant (other)
chain: MALALLEDWCRIMSVDEQKSLMVTGIPADFEEAEIQEVLQETLKSLGRYRLLGKIFRKQENANAVLLELLEDTDVSAIPSEVQGKGGVWKVIFKTPNQDTEFLERLNLFLEKEGQTVSGMFRALGQEGVSPATVPSISPELLAHLLGQAMAHAPQPLLPMRYRKLRVFSGSAVPAPEEESFEVWLEQATEIVKEWPVTEAEKKRWLAESLRGPALDLMHIVQADNPSISVEECLEAFKQVFGSLESRRTAQVRYLKTYQEEGEKVSAYVLRLETLLRRAVEKRAIPRRIADQVRLEQVMAGATLNQMLWCRLRELKDQGPPPSFLELMKVIREEEEEEASFENESIEEPEERDGYGRWNHEGDD
B2: PNMA2 C10S mutant (other)
chain: B1 chain with C10S, S136C
B3: wild type PNMA2 (other)
chain: B1 chain with S136C
notes: Self-associating capsid subunit
B4: PNMA2 C310S mutant (other)
chain: B1 chain with S136C, C310S
B5: PNMA2 C233S mutant (other)
chain: B1 chain with S136C, C233S

Target: the molecule itself
Assay: SDS-PAGE and western blot, self-association

Protein	binding result
B1	binds
B2	binds
B3	binds
B4	binds
B5	binds
